We go through 4 molecules from US10870874B2, “Binding fusion proteins, binding fusion protein-drug conjugates, XTEN-drug conjugates and methods of making and using same” (Amunix Pharmaceuticals, Inc., priority 2010, dated 2020).

The target of data set [1] is T1, human IL6R (Homo sapiens, UniProt P08887).
T1 sequence (P08887 20-468): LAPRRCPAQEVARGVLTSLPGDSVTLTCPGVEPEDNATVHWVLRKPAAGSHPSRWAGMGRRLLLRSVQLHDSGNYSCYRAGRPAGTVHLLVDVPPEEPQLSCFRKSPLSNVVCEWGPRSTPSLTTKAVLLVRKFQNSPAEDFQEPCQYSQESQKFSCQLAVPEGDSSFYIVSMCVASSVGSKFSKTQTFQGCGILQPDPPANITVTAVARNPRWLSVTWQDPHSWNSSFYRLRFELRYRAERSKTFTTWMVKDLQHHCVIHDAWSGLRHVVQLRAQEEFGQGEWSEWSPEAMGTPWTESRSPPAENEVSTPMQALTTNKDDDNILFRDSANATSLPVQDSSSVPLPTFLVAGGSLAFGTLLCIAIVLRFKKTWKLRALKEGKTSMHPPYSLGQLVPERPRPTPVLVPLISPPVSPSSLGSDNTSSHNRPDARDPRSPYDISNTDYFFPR
Nature of the data set: IL6R binding ELISA of aIL6R-XTEN. As to conditions: 100 ng/well human IL6R. As for the experimental part:
E. coli from a single colony of AC342 was grown to saturation in 2×YT media. 10 mL of this saturated overnight culture was used to inoculate a 500 ml of 2×YT media and this culture was grown to an OD600 between 0.4 and 0.5 at 37° C., transferred to 26° C. and induced with 1 mM IPTG. The culture was then grown overnight (15-17 hours) and harvested by centrifugation at 10,000 rpm in a Sorvall SLA-3000 rotor. The pellets were stored until use at −80° C. Cell paste was resuspended in 25 ml of lysis buffer (20 mM sodium acetate, 50 mM sodium chloride, pH 4.5), lysed by sonication, and clarified by spinning at 10,000 rpm at 4° C. in a Sorvall SS34 rotor. The samples were further acidified by the addition of acetic acid. […] IL6R binding was assessed in an ELISA as follows: the plates were coated with either 100 ng/well of human IL6R for 1 hour at 37° C., blocked with 3% BSA in PBS for one hour at 37° C., bound by adding the AC342 dilution series to the plate and incubating for one hour at room temperature, washed 3 times with PBST, detected with biotinylated anti-XTEN antibody for one hour at room temperature, washed three times with PBST, amplified with streptavidin-HRP for one hour at room temperature, washed three times with PBST, developed with TMB substrate and read at 405 nm using a plate reader.
For orientation: ELISA stands for enzyme-linked immunosorbent assay.

Data set [2] in a line: In vivo stability of GFP-XTEN in plasma samples after injection. The settings on record: samples up to 7 days after injection. Further details: species or system cynomolgus monkeys. As for the experimental part:
(§1) FIG. 16A-FIG. 16C show an SDS-PAGE gel of samples from a stability study of the fusion protein of XTEN_AE864 fused to the N-terminus of GFP.
(§2) A fusion protein containing XTEN_AE864 fused to the N-terminus of GFP was incubated in monkey plasma and rat kidney lysate for up to 7 days at 37° C. Samples were withdrawn at time 0, Day 1 and Day 7 and analyzed by SDS PAGE followed by detection using Western analysis and detection with antibodies against GFP as shown in FIG. 16A-FIG. 16C. […] The in vivo stability of the fusion protein was tested in plasma samples wherein the GFP_AE864 was immunoprecipitated and analyzed by SDS PAGE as described above.

Data set [3] can be described thus: Stability of XTEN_AE864-GFP incubated in rat kidney lysate. The settings on record: 37° C., over 3 days. It is filed as in vitro ADME. How it is done: as §1
Samples were withdrawn at time 0, Day 1 and Day 7 and analyzed by SDS PAGE followed by detection using Western analysis and detection with antibodies against GFP as shown in FIG. 16A-FIG. 16C. […] The in vivo stability of the fusion protein was tested in plasma samples wherein the GFP_AE864 was immunoprecipitated and analyzed by SDS PAGE as described above.

Data set [4] is described as follows: Stability of XTEN_AE864-GFP incubated in monkey plasma. The settings on record: 37° C., 7 days. It is filed as in vitro ADME, cynomolgus monkey. As for the experimental part:
as §1, §2

Data set [5] addresses human CD40 (Homo sapiens, UniProt P25942). Nature of the data set: CD40 binding ELISA with cleared lysates of aCD40-XTEN. The settings on record: from EC50 of lysate dilution and an estimate concentration of 10 μM in the lysate. How it is done: Two aCD40-XTEN constructs, AC384 and AC385, were expressed by growing a culture to saturation in 2×YT and then using this culture to inoculate a 500 ml flask of 2×YT. This second flask was grown to an OD600 of between 0.6 and 1.0 at 37° C., transferred to 26° C., and induced with 1 mM IPTG. The induction was left overnight and cell paste harvested by centrifugation the flowing morning. These pellets were stored as EP220 and EP221. Small samples were taken from the pellet, lysed using bugbuster, and clarified using a microcentrifuge. These cleared lysates were the serially diluted by a factor of three in PBST, for using in a binding ELISA. The ELISA was performed as follows: The plates were coated with either 100 ng/well of human CD40-Fc fusion for 1 hour at 37° C., blocked with 3% BSA in PBS for one hour at 37° C., bound by adding the AC384 or AC385 dilution series to the plate and incubating for one hour at room temperature, washed 3 times with PBST, detected with biotinylated anti-XTEN antibody for one hour at room temperature, washed three times with PBST, amplified with streptavidin-HRP for one hour at room temperature, washed three times with PBST, developed with TMB substrate and read at 405 nm using a plate reader. The ELISA values were plotted versus dilution of lysate plotted on a log scale and an EC50 value determined, with nearly identical results (FIG. 27).

Chain of human CD40 (P25942 21-193 limits assumed): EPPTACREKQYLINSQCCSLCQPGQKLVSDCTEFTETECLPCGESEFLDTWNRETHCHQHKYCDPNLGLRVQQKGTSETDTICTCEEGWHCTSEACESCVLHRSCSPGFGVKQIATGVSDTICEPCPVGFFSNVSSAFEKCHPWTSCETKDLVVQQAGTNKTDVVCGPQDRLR

B1: AC342: aIL6R-XTEN binding fusion protein construct (protein)
chain: YQQKPGKAPKLLIYYTSRLHSGVPSRFSGSGSGTDFTFTISSLQPEDIATYYCQQGNTLPYTFGQGTKVEIKTGSGEGSEGEGGGEGSEGEGSGEGGEGEGSGSQVQLQESGPGLVRPSQTLSLTCTVSGYSITSDHAWSWVRQPPGRGLEWIGYISYSGITTYNPSLKSRVTMLRDTSKNQFSLRLSSVTAADTAVYYCARSLARTTAMDYWGQGSLVTVSSGSPGSPAGSPTSTEEGTSESATPESGPGTSTEPSEGSAPGSPAGSPTSTEEGTSTEPSEGSAPGTSTEPSEGSAPGTSESATPESGPGSEPATSGSETPGSEPATSGSETPGSPAGSPT
The term EC50 denotes the concentration needed to bring the measured effect to its halfway point. In the case of B1, in data set [1], a half-maximal effect (EC50) was put at 5 nM.

B2: XTEN_AE864: fusion protein containing XTEN_AE864 fused to the N-terminus of GFP (protein)
chain: MAEPAGSPTSTEEGTPGSGTASSSPGSSTPSGATGSPGASPGTSSTGSPGGASASCAPSTGGGSPAGSPTSTEEGTSESATPESGPGTSTEPSEGSAPGSPAGSPTSTEEGTSTEPSEGSAPGTSTEPSEGSAPGTSESATPESGPGSEPATSGSETPGSEPATSGSETPGSPAGSPTSTEEGTSESATPESGPGTSTEPSEGSAPGTSTEPSEGSAPGSPAGSPTSTEEGTSTEPSEGSAPGTSTEPSEGSAPGTSESATPESGPGTSTEPSEGSAPGTSESATPESGPGSEPATSGSETPGTSTEPSEGSAPGTSTEPSEGSAPGTSESATPESGPGTSESATPESGPGSPAGSPTSTEEGTSESATPESGPGSEPATSGSETPGTSESATPESGPGTSTEPSEGSAPGTSTEPSEGSAPGTSTEPSEGSAPGTSTEPSEGSAPGTSTEPSEGSAPGTSTEPSEGSAPGSPAGSPTSTEEGTSTEPSEGSAPGTSESATPESGPGSEPATSGSETPGTSESATPESGPGSEPATSGSETPGTSESATPESGPGTSTEPSEGSAPGTSESATPESGPGSPAGSPTSTEEGSPAGSPTSTEEGSPAGSPTSTEEGTSESATPESGPGTSTEPSEGSAPGGASASCAPSTGGGSEPATSGSETPGTSESATPESGPGSEPATSGSETPGSPAGSPTSTEEGTSTEPSEGSAPGSEPATSGSETPGSEPATSGSETPGSEPATSGSETPGTSTEPSEGSAPGTSESATPESGPGSEPATSGSETPGTSTEPSEGSAPG
As for B2, the degradation in vivo result in data set [2] is listed as “very few signs of degradation”. The “degradation in rat kidney lysate” value in data set [3] is listed as “rapidly degraded”. Besides, the degradation in plasma result in data set [4] is reported as “negligible signs of degradation”.

B3: AC385: anti-CD40-XTEN_AE864 scFv binding fusion protein (protein)
chain: QQKPGQAPRLLIYYASHSISGIPARFSGSGSGTDFTLTISSLEPEDFAVYYCQHGHSYPWTFGGGTKVEIKTGSGEGSEGEGGGEGSEGEGSGEGGEGEGSGTQVQLVQSGSELKKPGASVKVSCKASGYAFTTTGMQWVRQAPGQGLEWMGWINTHSGVPKYVEDFKGRFVFSLDTSVSTAYLQISSLKAEDTAVYYCARSGNGNYDLAYFKYWGQGTLVTVSSGGSPAGSPTSTEEGTSESATPESGPGTSTEPSEGSAPGSPAGSPTSTEEGTSTEPSEGSAPGTSTEPSEGSAPGTSESATPESGPGSEPATSGSETPGSEPATSGSETPGSPAGSPT
For orientation: Kd means the free concentration of one partner at which half of the binding sites on the other are occupied at equilibrium, for simple one-to-one binding. B3: in data set [5], the Kd is approximately 50 nM.

B4: AC384: anti-CD40-XTEN_AE864 scFv binding fusion protein (protein)
chain: QQKPGQAPRLLIYYASHSISGIPARFSGSGSGTDFTLTISSLEPEDFAVYYCQHGHSYPWTFGGGTKVEIKTGSGEGSEGEGGGEGSEGEGSGEGGEGEGSGTQVQLVQSGSELKKPGASVKVSCKASGYAFTTTGMQWVRQAPGQGLEWMGWINTHSGVPKYVEDFKGRFVFSLDTSVSTAYLQISSLKAEDTAVYYCARSGNGNYDLAYFKYWGQGTLVTVSSGGSPAGSPTSTEEGTSESATPESGPGTSTEPSEGSAPGSPAGSPTSTEEGTSTEPSEGSAPGTSTEPSEGSAPGTSESATPESGPGSEPATSGSETPGSEPATSGSETPGSPAGSP
As to B4, the Kd in data set [5] was approximately 50 nM.
